What was measured:
[1] = system: core histone H2B
[2] = system: full-length free histone H3 (individual core histone)
[3] = system: H3 peptide phosphorylated at S28
[4] = system: GST-fusion histone H3 peptide (residues 1-57), wild-type
[5] = system: GST-fusion histone H3 peptide (residues 1-57), K27R mutant [GST: P08515]
[6] = system: H3 peptide containing residues 15-30
[7] = system: core histone H4
[8] = system: core histone H2A
[9] = system: H3 peptide previously di-methylated at K27
[10] = system: peptide containing H3 residues 1-20

Row | Substance | histone methyltransferase activity [1] | histone methyltransferase activity [2] | methylation activity with H3 peptides (14C-methyl-SAM) [3] | HMT activity on GST-histone H3 (residues 1-57) [4] | HMT activity on GST-histone H3 (residues 1-57) [5] | methylation activity with H3 peptides (14C-methyl-SAM) [6] | histone methyltransferase activity [7] | histone methyltransferase activity [8] | methylation activity with H3 peptides (14C-methyl-SAM) [9] | methylation activity with H3 peptides (14C-methyl-SAM) [10]
1 | SET protein from chlorella virus NY-2B | the SET proteins from these 3 viruses selectively methylate H3 (data not shown) | the SET proteins from these 3 viruses selectively methylate H3 (data not shown) | They showed little methyltransferase activity if the H3 peptide was previously di-methylated at K27 or phosphorylated at S28 | these viral SET proteins had robust methylation activity on wild-type H3 but little or diminished activity on the K27R mutant | these viral SET proteins had robust methylation activity on wild-type H3 but little or diminished activity on the K27R mutant | these viral SET proteins only methylated a H3 peptide containing residues 15-30 but not a peptide containing H3 residues 1-20 | the SET proteins from these 3 viruses selectively methylate H3 (data not shown) | the SET proteins from these 3 viruses selectively methylate H3 (data not shown) | They showed little methyltransferase activity if the H3 peptide was previously di-methylated at K27 or phosphorylated at S28 | these viral SET proteins only methylated a H3 peptide containing residues 15-30 but not a peptide containing H3 residues 1-20
2 | SET protein from chlorella virus NY-2A | the SET proteins from these 3 viruses selectively methylate H3 (data not shown) | the SET proteins from these 3 viruses selectively methylate H3 (data not shown) | They showed little methyltransferase activity if the H3 peptide was previously di-methylated at K27 or phosphorylated at S28 | these viral SET proteins had robust methylation activity on wild-type H3 but little or diminished activity on the K27R mutant | these viral SET proteins had robust methylation activity on wild-type H3 but little or diminished activity on the K27R mutant | these viral SET proteins only methylated a H3 peptide containing residues 15-30 but not a peptide containing H3 residues 1-20 | the SET proteins from these 3 viruses selectively methylate H3 (data not shown) | the SET proteins from these 3 viruses selectively methylate H3 (data not shown) | They showed little methyltransferase activity if the H3 peptide was previously di-methylated at K27 or phosphorylated at S28 | these viral SET proteins only methylated a H3 peptide containing residues 15-30 but not a peptide containing H3 residues 1-20
3 | SET protein from chlorella virus MA-1D | the SET proteins from these 3 viruses selectively methylate H3 (data not shown) | the SET proteins from these 3 viruses selectively methylate H3 (data not shown) | They showed little methyltransferase activity if the H3 peptide was previously di-methylated at K27 or phosphorylated at S28 | these viral SET proteins had robust methylation activity on wild-type H3 but little or diminished activity on the K27R mutant | these viral SET proteins had robust methylation activity on wild-type H3 but little or diminished activity on the K27R mutant | these viral SET proteins only methylated a H3 peptide containing residues 15-30 but not a peptide containing H3 residues 1-20 | the SET proteins from these 3 viruses selectively methylate H3 (data not shown) | the SET proteins from these 3 viruses selectively methylate H3 (data not shown) | They showed little methyltransferase activity if the H3 peptide was previously di-methylated at K27 or phosphorylated at S28 | these viral SET proteins only methylated a H3 peptide containing residues 15-30 but not a peptide containing H3 residues 1-20
